Reference: patent US20250026841A1 (AP BIOSCIENCES, published 2025)
Read-outs that look alike come from different tables or passages of the source.

T1: CD73 (antigen of the CD73 ELISA) (UniProt P21589 27-547, limits assumed)
T1 construct: the ELISA antigen is not described
T1 sequence (looked up): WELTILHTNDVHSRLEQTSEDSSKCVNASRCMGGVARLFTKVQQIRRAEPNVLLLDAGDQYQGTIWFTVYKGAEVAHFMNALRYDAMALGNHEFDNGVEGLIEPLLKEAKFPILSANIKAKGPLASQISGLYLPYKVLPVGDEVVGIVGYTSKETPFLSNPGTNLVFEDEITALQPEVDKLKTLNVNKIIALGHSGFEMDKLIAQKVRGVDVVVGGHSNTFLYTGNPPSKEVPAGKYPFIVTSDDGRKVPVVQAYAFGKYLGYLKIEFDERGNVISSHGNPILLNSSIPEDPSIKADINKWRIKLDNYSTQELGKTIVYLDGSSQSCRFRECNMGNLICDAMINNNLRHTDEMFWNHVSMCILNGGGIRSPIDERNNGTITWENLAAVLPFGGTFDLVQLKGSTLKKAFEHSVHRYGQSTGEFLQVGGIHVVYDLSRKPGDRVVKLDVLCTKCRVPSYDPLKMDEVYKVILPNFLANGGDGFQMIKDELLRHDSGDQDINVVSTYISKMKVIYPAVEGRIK

T2: CD73, cell membrane-bound (expressed by MDA-MB-231 cells) (human, UniProt P21589 27-549)
T2 construct: whole, on cells; also called CD73-expressing MDA-MB-231 breast cancer cells
T2 sequence (looked up): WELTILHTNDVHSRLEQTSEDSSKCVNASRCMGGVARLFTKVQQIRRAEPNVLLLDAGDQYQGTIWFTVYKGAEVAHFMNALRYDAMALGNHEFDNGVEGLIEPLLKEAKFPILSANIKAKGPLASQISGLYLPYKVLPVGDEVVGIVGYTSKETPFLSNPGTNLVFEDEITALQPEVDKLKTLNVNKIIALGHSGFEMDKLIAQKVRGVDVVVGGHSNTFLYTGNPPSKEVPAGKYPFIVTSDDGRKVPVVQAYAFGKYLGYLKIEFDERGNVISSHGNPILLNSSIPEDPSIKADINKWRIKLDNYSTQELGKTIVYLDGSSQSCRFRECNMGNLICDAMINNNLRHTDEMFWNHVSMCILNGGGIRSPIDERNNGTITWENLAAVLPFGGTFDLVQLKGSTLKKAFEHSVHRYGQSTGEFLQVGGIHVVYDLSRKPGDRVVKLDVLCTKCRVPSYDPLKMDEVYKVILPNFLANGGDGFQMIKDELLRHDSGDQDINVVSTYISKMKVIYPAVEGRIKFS

T3: soluble CD73 secreted by MDA-MB-231 cells (human, UniProt P21589 27-549, limits assumed)
T3 sequence (looked up): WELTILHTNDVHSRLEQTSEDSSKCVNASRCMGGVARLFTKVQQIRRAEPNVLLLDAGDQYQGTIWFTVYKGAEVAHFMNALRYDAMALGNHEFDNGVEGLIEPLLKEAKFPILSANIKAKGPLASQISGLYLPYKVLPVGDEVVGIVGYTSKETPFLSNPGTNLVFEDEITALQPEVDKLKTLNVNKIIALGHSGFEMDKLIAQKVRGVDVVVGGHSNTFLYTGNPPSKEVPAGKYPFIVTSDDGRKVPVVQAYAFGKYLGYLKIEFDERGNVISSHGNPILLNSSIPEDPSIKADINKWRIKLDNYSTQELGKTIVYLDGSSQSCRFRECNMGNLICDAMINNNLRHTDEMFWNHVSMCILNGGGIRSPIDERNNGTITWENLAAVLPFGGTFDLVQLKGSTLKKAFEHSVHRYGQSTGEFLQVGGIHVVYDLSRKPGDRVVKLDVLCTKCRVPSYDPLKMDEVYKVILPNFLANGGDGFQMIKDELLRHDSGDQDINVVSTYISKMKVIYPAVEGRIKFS

T4: his-tagged human CD73 (AcroBiosystems, Cat. No. CD3-H52H7) (human, UniProt P21589 27-547)
T4 construct: Bought protein; also called hCD73-His; human CD73 antigen; not shown: His tag
T4 sequence (looked up): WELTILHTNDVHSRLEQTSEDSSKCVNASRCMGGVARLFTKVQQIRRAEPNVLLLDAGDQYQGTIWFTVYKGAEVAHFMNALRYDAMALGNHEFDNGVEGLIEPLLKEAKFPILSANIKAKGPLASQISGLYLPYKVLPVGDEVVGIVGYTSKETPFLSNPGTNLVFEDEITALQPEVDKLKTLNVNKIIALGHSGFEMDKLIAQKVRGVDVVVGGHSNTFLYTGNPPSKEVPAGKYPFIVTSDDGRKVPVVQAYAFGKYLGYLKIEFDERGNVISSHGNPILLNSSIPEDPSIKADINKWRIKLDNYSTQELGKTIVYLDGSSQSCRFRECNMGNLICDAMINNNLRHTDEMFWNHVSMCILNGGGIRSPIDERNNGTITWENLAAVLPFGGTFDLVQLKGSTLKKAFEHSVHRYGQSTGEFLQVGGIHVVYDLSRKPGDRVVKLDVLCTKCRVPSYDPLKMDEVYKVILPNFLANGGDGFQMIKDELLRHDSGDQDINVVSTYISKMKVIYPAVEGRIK


Legend:
[1] = biological target: T1, CD73 (antigen of the CD73 ELISA); assay: phage ELISA on coated CD73-flag-HIS; X-flag-HIS control bars not seen above the axis
[2] = biological target: T2, CD73, cell membrane-bound (expressed by …); assay: flow cytometry, antibody 4 µg/ml on MDA-MB-231 cells, A488 anti-human IgG
Procedure: As illustrated in FIG. 15 the binding activity of anti-CD73 antibody leads was assessed by flow cytometer. MDA-MB-231 cells (1×10^5 cells) were surface stained with anti-CD73 antibody (4 μg/ml) for 30 minutes, then incubated with A488-conjugated anti-human IgG secondary antibody for 15 minutes on ice. Cells were analyzed by flow cytometer, and A488 fluorescence intensity was shown by histograms (left) and number (right table). As illustrated in FIG. 16 the blockade of CD73 enzymatic activity by anti-CD73 antibody leads was assessed. The enzymatic activity of CD73 expressed by MDA-MB-231 on the cell surface was blocked by anti-CD73 antibody leads.

[3] = biological target: T3, soluble CD73 secreted by MDA-MB-231 …; assay: cell-based or functional assay
[4] = biological target: T2, CD73, cell membrane-bound (expressed by …); assay: cell-based or functional assay
[5] = biological target: T5, mouse Fc tagged human CD137 protein (AcroBiosystems, Cat #41B-H5256) (human, UniProt Q07011 24-186); assay: BLI (Octet), hCD73-His on HIS1K sensor, antibody 100 nM, then CD137-mFc 100 nM
T5 construct: extracellular domain; Bought protein; also called CD137 extracellular domain fused with mouse Fc tag recombinant protein; human CD137 antigen
Procedure: The binding activities of the AP601 was determined by ForteBIO® (Menlo Park, Calif.) biosensor analysis. In this method, the His tagged human CD73 protein (AcroBiosystems, Cat. No. CD3-H52H7) were loaded onto HIS1K (Anti-Penta-HIS) biosensor (Cat. No. 18-5120) at 5 μg/mL for 5 minutes. Sensors then were exposed to antibody samples at 100 nM for 5 minutes follow by associating with the mouse Fc tagged human CD137 protein (AcroBiosystems, Cat. No. 41B-H5256) at 100 nM for 5 minutes. The binding chart were produced by Octet Data Acquisition and Analysis Software.

[6] = biological target: T4, his-tagged human CD73 (AcroBiosystems, …); assay: BLI (Octet), antibody on AHC sensor, hCD73-His 2-fold from 30 nM, 7 points
Procedure: (§1) The affinity of anti-CD73 mAbs and bsAbs were determined by biolayer interferometry analysis (ForteBIO, USA). In this method, anti-CD73 antibodies were loaded at 5 μg/mL on AHC (Anti-Human IgG Fc Capture, ForteBIO, Cat. No. 18-5060) for signal reach to approximate 0.5 nm. Sensors then were exposed to his-tagged human CD73 (AcroBiosystems, Cat. No. CD3-H52H7)-containing solutions that 2-fold serial diluted from the top concentration 30 nM for total 7 points. Measurements were performed as follows: 1 minute baseline in kinetic buffer, 5 minutes association in hCD73-His-containing solutions, and 5 minutes dissociation into kinetic buffer. The kinetic parameters were calculated and produced by Octet Data Acquisition and Analysis Software.

[7] = biological target: T4, his-tagged human CD73 (AcroBiosystems, …); assay: biolayer interferometry; antibody captured on AHC sensor, hCD73-His as analyte
Procedure: as §1

[8] = biological target: T5, mouse Fc tagged human CD137 protein …; assay: BLI (Octet), biotinylated p95 peptide on SA sensor, antibody 100 nM, then CD137-mFc 100 nM
Procedure: The binding activities of anti-p95HER2-CD137 bispecific antibody was determined by ForteBIO® (Menlo Park, Calif.) biosensor analysis. In this method, the custom synthesis biotinylated Her2 p95 peptide (GenScript) was loaded onto SA (Streptavidin, ForteBIO, Cat #18-5019) biosensor at 50 μg/mL for 5 minutes. Sensors then were exposed to antibody samples at 100 nM for 5 minutes follow by associating with the mouse Fc tagged human CD137 protein (AcroBiosystems, Cat #41B-H5256) at 100 nM for 5 minutes. The binding chart were produced by Octet Data Acquisition and Analysis Software.

[9] = biological target: T1, CD73 (antigen of the CD73 ELISA); assay: phage ELISA on coated CD73-flag-HIS; X-flag-HIS control bars not seen above the axis; remark: listed apart in the source

binding result [2] | IC50, inhibition of soluble CD73 enzyme (AMP-Glo, MDA-MB-231 cultured medium) [3] [nM] | IC50, inhibition of cell membrane-bound CD73 enzyme (AMP-Glo, MDA-MB-231 cells) [4] [nM] | Kd [6] [nM] | fold improvement of binding affinity against parental #3-1-28 [7] [fold] | Binder | further results
binds | – | – | – | – | anti-CD73 antibody clone 3-4 (antibody, V domains shown, also called CD73 #3-4; CR3-4) VH: not shown VL: QSALTQPASVSGSPGQSITISCTGTSSDVGSYNLVSWYQQHPGKAPKLMIYEGSKRPSGVSNRFSGSKSGNTASLTISGLQAEDEADYYCCSYAGSSGWDIGTGTKVTVLG | binding result [1]: binds
– | 1.48 | 0.49 | 1.04 | – | anti-CD73 antibody clone 3-1-28 (antibody, human IgG1, lambda, N297A, V domains shown, also called CD73 #3-1-28; parental #3-1-28) VH: QVQLVQSGAEVKKPGSSVKVSCKASGGTFSSYAISWVRQAPGQGLEWMGRIIPILGIANYAQKFQGRVTITADKSTSTAYMELSSLRSEDTAVYYCARDSPVHYYGSGSYYRDAFDIWGQGTMVTVSS VL: not shown | binding result [5]: no binding (tested: 100 nM)
– | 0.273 | 0.245 | 0.523 | ~2 | anti-CD73 #3-1-28-v2 (antibody, human IgG1, lambda, N297A, V domains shown, also called #1911-022; anti-CD73 #3-1-28 (S107D S109H)) VH: QVQLVQSGAEVKKPGSSVKVSCKASGGTFSSYAISWVRQAPGQGLEWMGRIIPILGIANYAQKFQGRVTITADKSTSTAYMELSSLRSEDTAVYYCARDSPVHYYGDGHYYRDAFDIWGQGTMVTVSS VL: not shown | –
– | 0.187 | 0.213 | 0.344 | ~2 | anti-CD73 #3-1-28-v1 (antibody, human IgG1, lambda, N297A, V domains shown, engineered IgG1 constant region; also called #1919-003; anti-CD73 #3-1-28 (S51A Q54E)) VH: QVQLVQSGAEVKKPGSSVKVSCKASGGTFSSYAISWVRQAPGQGLEWMGRIIPILGIANYAQKFQGRVTITADKSTSTAYMELSSLRSEDTAVYYCARDSPVHYYGSGSYYRDAFDIWGQGTMVTVSS VL: QSVLTQPPSASGTPGQRVIISCSGSSSNIGSNSVYWYQQLPGTAPKLLIYANNERPSGVPGRFSGSKSGTSASLAISGLRSEDEADYYCAAWDDSLRGPVFGGGTKLTVLG | –
– | 0.241 | – | 0.553 | ~2 | anti-CD73 #3-1-28-v3 (antibody, human IgG1, lambda, N297A, V domains shown, also called #1911-030; anti-CD73 #3-1-28 (S107D S109T A114S)) VH: QVQLVQSGAEVKKPGSSVKVSCKASGGTFSSYAISWVRQAPGQGLEWMGRIIPILGIANYAQKFQGRVTITADKSTSTAYMELSSLRSEDTAVYYCARDSPVHYYGDGTYYRDSFDIWGQGTMVTVSS VL: not shown | –
– | – | – | – | – | anti-p95HER2 antibody clone R4-11 (antibody, human IgG1, kappa, V domains shown, also called p95HER2 #R4-11; #R4-11 mAb) VH: QITLKESGPTLVKPTQTLTLTCTFSGFSLSTSGVGVGWIRQPPGKALEWLALIYWDDDKRYSPSLKSRLTITKDTSKNQVVLTMTNMDPVDTATYYCAHAHPFSGSYNFWGQGTLVTVSS VL: DIVMTQSPDSLAVSLGERATINCKSSQSVLFSSNNKDYLAWYQQRPGQPPKLLIHWASTREPGVPDRFSGSGSGTDFTLTISSLQAEDVAVYYCLQSYSNPPTFGQGTKVEIKR | binding result [8]: no binding (tested: 100 nM)
binds | – | – | – | – | CR3-1-37 (antibody, IgG1, V domains shown, also called anti-CD73 antibody clone 3-1-37) VH: QVQLVQSGAEVKRPGSSVKVSCKASGGTFSSYAISWVRQAPGQGLEWMGGIIPIFGTANYAQKFQGRVTITADESTSTAYMELSSLRSEDTAVYYCARGVSYYYGMHVWGQGTTVTVSS VL: SYVLTQPPSVSVTPGKTARIACGGNNLESKIVSWYQQKPGQAPVLVIFYDTDRPSGISERFSGSNSGNTATLTISRVEAGDEADYYCQVWDSNSDHVIFGGGTKLTVLG | binding result [9]: binds
binds | – | – | – | – | CR3-16 (antibody, IgG1, V domains shown, also called anti-CD73 antibody clone 3-16) VH: QVQLVQSGAEVKKPGASVKVSCKASGYTFTDFYIHWVRQAPGQGLEWMGWINPYSGSTNYPQKFQGRVTMTRDTSISTAYMDLSSLTSDDTAVYLCVRGRWFDFDYWGQGTTVTVSS VL: QSALTQPPSVSGSPGQSITISCTGTSSDVGTYNFVSWYQQHPGKVPKLIIYDVSNRPSGVSIRFSGSKSGNTASLTISGLQAEDEADYYCSSFRSGSTYVFGTGTRVTVLG | binding result [1]: binds
